Experimental data taken from the nanobody polyreactivity screen of Harvey et al. (2022).

Assay: yeast display, Sf9 membrane polyspecificity reagent, FACS + sequencing; frameworks hold sequencing errors
Summary of the method: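 Genes from sorted yeast were amplified by colony PCR, read by MiSeq 2 × 250 sequencing and filtered on CDR length. These cells carried a synthetic nanobody library in Saccharomyces cerevisiae BJ5465 and were sorted by FACS into low and high (top ~1%) gates on anti-HA and streptavidin fluorescence. Polyreactivity is labelled according to the gate of origin.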

| Sequence | polyreactivity (PSR sort gate) |
| --- | --- |
| QVQLVESGGGLVQAGGSLRLSCAASGLIFWAYAMGWYRQAPGKERELVAAISWSGARTYYADSVKGRFTISRDNAKNTVYLQMNILKPEDTAVYYCAAGLSSSSSGYEGDYWGLGTQVTVSS | high polyreactivity |
| QVQLEDSGGGLVQAGGSLRLSCAASGFTFYSNAMGWYRQAPGKERELVAAITRGGGSTYYADSVKGRFTISRDNAKNTVYLQMNSLKPEDTAVYYCAAEMFAPYRSTYDYWGQGTQVTVSS | low polyreactivity |
| PVQLVESGGGLVQAGGSLRLSCAASGFIFRRNAMGWYRQAPGKERELVASIRSGGSTKYADSVKGRFTISRDNAKNTVYLQMTSLKPEDTAVYYCNAEDPGYAVRWYWFKYDYWGQGTQVSVSS | low polyreactivity |
| QVQLLESGGGLVQAGGSLRLSCAASGSIIRQNGMVWYRPAPGKEREFVAAITRTGGSTYYADSVKGRFTISRDNAKNTVYLHMNSLKPEDTAGYYCAARGGYRYTRYDYWGQGTQVTVSS | high polyreactivity |
| QVQLVESGGGLVQAGGSLRLSCAASGRTFLTNAMGWYRPAPGKERELVAAISSGASTNYADSVKGRFTISRDNAKNTVYLQMNSLKPEDTAVYYCAAQLTDYQSKTLSYDYWGQGTQVTVSS | low polyreactivity |
| QVQLVESGGGLVQAGGSLRLSCAASGRIFQYNPMGWYIQAPGKERELVADITWIGGSTYADSVKGRFTISRDTAKNTVYLQMNSLKPEDTAVYYCNARYIYRFDYWGQGSQVTVSS | low polyreactivity |
| QVQLVESGGGLVQAGGSLRLSCAASGFIFDSYAMGWYRQAPGKVRELVATISRRGSSTYYADSVKGRFTISRDNAKNTVYLQMNSLKPEDNAVYYCAAGSISYYYKLYWGGYWGQGTQVTVSS | high polyreactivity |
| QVQLVESGVGLVQAGGSLRLSCAASGRIFRRYVMGWYRQAPGKEREFVAAITSRGGRTYYADSVKGRFTISRDNAKNTVYLQMNSLKPEDTAVYYCAARYSRSMDYWGQGTQVTVSS | high polyreactivity |
| QVQLVESGGGLVQAGGSLRLSCAASGSNFDTYAMGRYRQAPGKERELVAAITRRAGSTYYADSVKGRFRISRDNAKNTVYLQMNSLKPEDTSVYYCAADFRYPDIYGGYDYWGQGTQVTVSS | low polyreactivity |
| QVQLVESGGGLVQAGGSLRLSCAASGSTFRQYAMGWYRQAPGKERELVAATTSSGGSTYYADSVKGRFTISRDNAKNTVYLQMNSLKPDDTAVYYCNVDGRSDGDDYWGQGTHVTVSS | low polyreactivity |
| QVQLVESGGGLVQAGGSLRLSCAASGNTFVSNAMGWYRPAPGKERELVAAISSTGNTNYADSVKGRFTISRDNAKNTDYLQMNSLKPEDTAVYYCAKGDKRAYVAYKEGSWGQGTQVTVSS | low polyreactivity |
| QVQLVESGGGLFQAGGSLRISCAASGSTFYHNFMGWYRQAPGKERELVARITSTDSTYYEDSVKGRFTISGDNAKNTVYLQMNSLKPEYTAVSYCAASWWSPYDYWGQATQVTVSS | low polyreactivity |
| QVQLVESGGRLVQAGGSLRLSCAASGRIFSINVMGWYRHAPGKERELVAAISKRGGSTYYADSVKGRFTISRDNAKNTVYLQMNSLKPEDTAVFYCAARRHYTYGNGPSRGGQMDYWGQGTQVTVSS | high polyreactivity |
| QVQLVESGGCLVQAGGSLRLSSAASGSTFRVNAMGWYRQAPGKERELVAAISFSGGSTYYADSVKGRFTISRDNAKNTVYLQMNSLKPEDTAVYYCNVDIYLGGDYYYSRYTWGLDYWGQGTQVTVSS | low polyreactivity |
| QVQLVESGGGLVQAGGSLRLSCAASGSTFVLYAMGWYIQAPGKERELVAAIDSSGGSTYYADSVKGRFTISRDNAKNTVYVQMNSLKPEDTAVYYCAARFKGLLGYWGQGTQVTVSS | high polyreactivity |
| QVQLQESGGGLVQADGSLRLSCAASGSIIGYYYMGWYRQAPGKDRELVATINNCGITNYADSVKGLFTISRDNAKNTVYLQMNSLKPDDTAVYYCAADEYAQRDLGYWGQGTQVTVSN | low polyreactivity |

| Sequence | polyreactivity (PSR sort gate) |
| --- | --- |
| QVQLVESGGGLVQAGGSLRLSCAASGLIFSSYAMGLNRQAPGKEREFVAAISRTGGITYYADSVKGRFTISRDYAKNTVYLQMNSLKPEDTAVYYCNARWYDPTLKVGYWGQVTQVTVSS | high polyreactivity |
| QVQLVESGGGLVQAGGSLRLSCAASGFIFKHYAMGWYRQAPGKERELVAAISRSTGRTNYADSVKGRFTISRDNAKNTDYLQMNSLKPEDTAVYYCAAYRYLRYDYWGQGTQVTVSS | high polyreactivity |
| QVQHVESGGGLVQAGGSLRLSCAASGFTFHRYAMGWYRQAAGKERELVARISRSAGSTYYADSVKGRFTISRDNAKNTVYLQMNSLKPEDTAVYYCAAAQRRYGRGYGYWGQGTQVTVSS | high polyreactivity |
| QVQLVESGGGLVQAGGSLRLSCAASGFTFPHYAMGWYRQAPGKERELVAVISWSGSSTYYADSVKGRFTISRDNAMNTVYLQMNSLKPEDTAVYYCNTRKLYQVDYDYWGQGTQVTVSS | high polyreactivity |
| QVKLVDSGGGLVQAGGSLRLTCAASGITFDKYAMGWYRQAPGKERELVAAITKSSGSTYYADSVKGRFTISRVNAKNTDYLQMNSLKAEDTAVYYCAAGIVYCEYFWGQGTQVTVSS | high polyreactivity |
| QVQLVESGGGLVQAGGSLRLSCAASGGMGWYRQAPGKERELVATISSVGSTNYADSVKGRFTISRDNAKNTVYLQMNSLKPEDTAVYYCIATGVQYFLYGYWGQGTQVTVSS | low polyreactivity |
| QVQLVDSGGGLVQEGGSLRLSCAASGLTFYSNAMGWYRQARGKERELVARISTGGSTYADSVKGRFTISRDNAKNTVYLQMNSLKPEVTAVYYCAAEYNLRTYWGDYWGQGTQVTVSS | low polyreactivity |
| QVPLVESGGGLVQAGGSLRLSCAASGFTFFSHAMGWYSQAPGKDRELVAAITTNGGSTYYADSVKGRFTISRDNAKNTVYVQITSLKPEDTAVYYCAADYSLPWSWLYEYWGQGTQVTVSS | low polyreactivity |
| QVQLIESGGGLVQAGGSLRLSCAASGRIFYYNAMGWYRQAPGKERELVAVITRSGGSTYYADSVKGRFTISRDTAKNTVYLQMNSLKQEDTAVYYCAKTWKGGYGYDYWGQGTQVTVSS | low polyreactivity |
| QVQHVESGGGLVQAGGSLRLSCAASGSTFANNAMGWYRQAPGKERELVASITTDGSTNYADSVKGRFTISRDNAKNPVYLQMNSLKPEDSAVYYCAADYHTPSSFAPIELYDYCGQGTQVTVSS | low polyreactivity |
| QVQLVESGGGLVQAGGSLRLSCSASGSTFGYNAMGWYRQAPGKERELVAAILFSGGSTFYADSVKGRFTISRDNAKNTVYLQMNSLKQEDTAVYYCADYAGYYAYDSWGQGTQVTVSS | low polyreactivity |
| QVQLVESGGGLVQAGGSLRLSCAASGSIFSLYAMGWYRPAPGKERELVAAISDGTGTNYADSVKGRFTISRDNAKNTVYLQMNSLKPVDTAVYYCATETYWYLPYYGDVEGNYWGQGTQVTVSS | low polyreactivity |
| QVQLVESGGGLVQAGGSLRLSCAASGRILFHYAMGGSRPAPGKERELVAAITWRGGGTHYADSVKGRFTISRDNAKNTVYLQMNSLKPEDNAVYYCAADGWTYVYDYGYWGQGTQVTVSS | low polyreactivity |
| QVQLVESGGGLVQAGGSLRLRCAASGSIFQPYAMGWYRQAPGKERELVAAITNGGSTYYADSVKGRFTISRDNATNTVYLQMNSLKPEDTAVYYCAADVQSSHEYDYWGQGTQVTVSS | low polyreactivity |
| QVQLVESGGGLVQAGGSLRLSCAASGRIFARYAMGWYRQAPGKERELVAAISRGGSTKYADSVKGRFTISRDNAKNTVYLQMNSLKPEDTAVYYCAGQLWGSPYGAYYAGDYWGQGTQVTVSS | low polyreactivity |
| QVQLVESGGGLVQAGGSLRLSCAASGSIFRFKAMGWYRQAPGKERELVAAITSSGGSTYYADSVKGRFTISRDNAKNTVYLQMNSLKPEDTAVYYCAAGARRVGRYYWGQGTQVTVSS | high polyreactivity |
